Experimental data reported in patent US20220194999A1 (Janssen / Centocor, published 2022).

Assays:
[1] = target: T1, HLA-A*02:01 class I complex (conditional p*HLA*02:01, biotinylated heavy chain with beta2-microglobulin) (human, biotinylated heavy chain); test: UV peptide exchange, HLA class I ELISA, % of Pos peptide;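 as to Average %: Streptavidin-captured HLA complexes after exchange detected via HRP anti-human B2M antibody, absorbance read, colour scales with intact complex, normalized to exchange control peptide as 100%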;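 as to Exch I (%): Streptavidin-captured HLA complexes after exchange detected via HRP anti-human B2M antibody, absorbance read, colour scales with intact complex, normalized to exchange control peptide as 100%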;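 as to Exch II (%): Streptavidin-captured HLA complexes after exchange detected via HRP anti-human B2M antibody, absorbance read, colour scales with intact complex, normalized to exchange control peptide as 100%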
T1 construct: UV-labile peptide p* is cleaved and exchanged for the test peptide; also called HLA 2.1
Excerpt: (§1) The HLA class I ELISA is an enzyme immunoassay based on the detection of beta2-microglobulin (B2M) of (peptide-stabilized) HLA class I complexes. To this end streptavidin is bound onto polystyrene microtiter wells. After washing and blocking, HLA complex present in exchange reaction mixtures or ELISA controls is captured by the streptavidin on the microtiter plate via its biotinylated heavy chain. Non-bound material is removed by washing. Subsequently, horseradish peroxidase (HRP)-conjugated antibody to human B2M is added. […] In the latter case B2M is removed during the washing step. After removal of non-bound HRP conjugate by washing, a substrate solution is added to the wells. A colored product is formed in proportion to the amount of intact HLA complex present in the samples. After the reaction has been terminated by the addition of a stop solution, absorbance is measured in a microtiter plate reader. The absorbance is normalized to the absorbance of an exchange control peptide (represents 100%). Also, suboptimal HLA binding of peptides with a moderate to low affinity for HLA class I molecules can be detected by this ELISA technique
(§2) Coating wells of two NUNC MaxiSorp™ 96-well ELISA plates: only the contents of one coating buffer capsule were dissolved in 100 mL of distilled water (0.05 M carbonate-bicarbonate buffer, pH 9.6 at 25° C.). 46 μL of Streptavidin stock solution were added to 23 mL coating buffer. 100 μL of the Streptavidin stock solution were added to all wells. Each microtiter plate was covered with an adhesive seal and incubated overnight at room temperature (18-25° C.).

[2] = target: T1, HLA-A*02:01 class I complex …; test: as above; remark: listed apart in the source
Excerpt: as §1, §2

B1: CTNNB1.S33C9 mimic peptide YLDCGIHSL (peptide)
peptide: YLDCGIHSL
notes: also called M034
average relative binding (%) [1]: > 100% | Average % [2]: 107% | Exch I (%) [2]: 103% | Exch II (%) [2]: 111%

B2: CTNNB1_S33C6 mimic peptide YMDCGIHSV (peptide)
peptide: YMDCGIHSV
notes: also called M023
average relative binding (%) [1]: > 100% | Average % [2]: 108% | Exch I (%) [2]: 101% | Exch II (%) [2]: 115%

B3: CTNNB1_S33C10 mimic peptide YMDCGIHSL (peptide)
peptide: YMDCGIHSL
notes: also called M021
average relative binding (%) [1]: > 100% | Average % [2]: 106% | Exch I (%) [2]: 108% | Exch II (%) [2]: 103%

B4: TP53_H193L5 mimic peptide GLAPPQLLV (peptide)
peptide: GLAPPQLLV
notes: also called M141
Average % [2]: 42.2% | Exch I (%) [2]: 40.3% | Exch II (%) [2]: 44.1%

B5: TP53.H193L mutant peptide GLAPPQLLI (peptide)
peptide: GLAPPQLLI
notes: also called M140
average relative binding (%) [1]: < 15% | Average % [2]: 8.2% | Exch I (%) [2]: 9.2% | Exch II (%) [2]: 7.2%

B6: TP53_H193Y5 mimic peptide GLAPPQYLV (peptide)
peptide: GLAPPQYLV
notes: also called M151
Average % [2]: 48.2% | Exch I (%) [2]: 48.8% | Exch II (%) [2]: 47.6%

B7: TP53.H193Y mutant peptide GLAPPQYLI (peptide)
peptide: GLAPPQYLI
notes: also called M150
average relative binding (%) [1]: < 15% | Average % [2]: 13.3% | Exch I (%) [2]: 13.5% | Exch II (%) [2]: 13.1%

B8: TP53_H193Y6 mimic peptide GMAPPQYLV (peptide)
peptide: GMAPPQYLV
notes: also called M152
Average % [2]: 21.4% | Exch I (%) [2]: 22.5% | Exch II (%) [2]: 20.3%

B9: TP53_H193L6 mimic peptide GMAPPQLLV (peptide)
peptide: GMAPPQLLV
notes: also called M142
average relative binding (%) [1]: < 15% | Average % [2]: 13.9% | Exch I (%) [2]: 13.9% | Exch II (%) [2]: 13.9%

B10: PTEN R173C6 mimic peptide CYLYYYSYLV (peptide)
peptide: CYLYYYSYLV
notes: also called M102
average relative binding (%) [1]: < 15% | Average % [2]: 10.7% | Exch I (%) [2]: 10.4% | Exch II (%) [2]: 10.9%

B11: PTEN.R173C10 mimic peptide CYLYYYSYLI (peptide)
peptide: CYLYYYSYLI
notes: also called M105
Average % [2]: 23.3% | Exch I (%) [2]: 27.8% | Exch II (%) [2]: 18.9%

B12: PTEN.R173C11 mimic peptide CYMYYYSYLI (peptide)
peptide: CYMYYYSYLI
notes: also called M106
average relative binding (%) [1]: < 15% | Average % [2]: 4.9% | Exch I (%) [2]: 4.9% | Exch II (%) [2]: 4.8%

B13: PTEN.R173C3 mimic peptide CYMYYYSYLL (peptide)
peptide: CYMYYYSYLL
notes: also called M104
average relative binding (%) [1]: < 15% | Average % [2]: 8.5% | Exch I (%) [2]: 8.3% | Exch II (%) [2]: 8.7%

B14: PIK3CA_G118D5 mimic peptide ILNREIDFV (peptide)
peptide: ILNREIDFV
notes: also called M091
Average % [2]: 70.4% | Exch I (%) [2]: 62.1% | Exch II (%) [2]: 78.7%

B15: PIK3CA_G118D6 mimic peptide IMNREIDFV (peptide)
peptide: IMNREIDFV
notes: also called M092
Average % [2]: 66.7% | Exch I (%) [2]: 68.6% | Exch II (%) [2]: 64.9%

B16: PIK3CA_G118D9 mimic peptide ILNREIDFL (peptide)
peptide: ILNREIDFL
notes: also called M093
Average % [2]: 56.2% | Exch I (%) [2]: 51.1% | Exch II (%) [2]: 61.3%

B17: CIC.R215W mutant peptide MIFSKRHWA (peptide)
peptide: MIFSKRHWA
notes: also called M010
average relative binding (%) [1]: < 15% | Average % [2]: 6.2% | Exch I (%) [2]: 6.2% | Exch II (%) [2]: 6.1%

B18: PIK3CA_E453K5 mimic peptide GLKDLLNPV (peptide)
peptide: GLKDLLNPV
notes: also called M081
Average % [2]: 74.9% | Exch I (%) [2]: 73.5% | Exch II (%) [2]: 76.3%

B19: PIK3CA_E453K6 mimic peptide GMKDLLNPV (peptide)
peptide: GMKDLLNPV
notes: also called M082
Average % [2]: 77.5% | Exch I (%) [2]: 74.7% | Exch II (%) [2]: 80.4%

B20: TP53_V272M2 mimic peptide LLGRNSFEL (peptide)
peptide: LLGRNSFEL
notes: also called M221
Average % [2]: 98.4% | Exch I (%) [2]: 101% | Exch II (%) [2]: 95.7%

B21: TP53_V272M3 mimic peptide LLGRNSFEI (peptide)
peptide: LLGRNSFEI
notes: also called M222
Average % [2]: 66.7% | Exch I (%) [2]: 75.3% | Exch II (%) [2]: 58%

B22: SF3B1_R625H5 mimic peptide NMDEYVHNV (peptide)
peptide: NMDEYVHNV
notes: also called M111
Average % [2]: 83.6% | Exch I (%) [2]: 86.6% | Exch II (%) [2]: 80.6%

B23: SF3B1.R625H mutant peptide NMDEYVHNT (peptide)
peptide: NMDEYVHNT
notes: also called M110
average relative binding (%) [1]: < 15% | Average % [2]: 8.3% | Exch I (%) [2]: 9.2% | Exch II (%) [2]: 7.3%

B24: SF3B1.R625H13 mimic peptide NMDEYVHNI (peptide)
peptide: NMDEYVHNI
notes: also called M115
Average % [2]: 68.4% | Exch I (%) [2]: 73.6% | Exch II (%) [2]: 63.1%

B25: SF3B1.R625H10 mimic peptide NLDEYVHNL (peptide)
peptide: NLDEYVHNL
notes: also called M114
Average % [2]: 55.1% | Exch I (%) [2]: 57.2% | Exch II (%) [2]: 53%

B26: SF3B1.R625H14 mimic peptide NLDEYVHNI (peptide)
peptide: NLDEYVHNI
notes: also called M116
Average % [2]: 70.1% | Exch I (%) [2]: 71.1% | Exch II (%) [2]: 69%

B27: SF3B1_R625H6 mimic peptide NLDEYVHNV (peptide)
peptide: NLDEYVHNV
notes: also called M112
Average % [2]: 88.2% | Exch I (%) [2]: 88.1% | Exch II (%) [2]: 88.4%

B28: CIC_R215W7 mimic peptide MMFSKRHWV (peptide)
peptide: MMFSKRHWV
notes: also called M013
Average % [2]: 74.4% | Exch I (%) [2]: 76.2% | Exch II (%) [2]: 72.6%

B29: CIC_R215W6 mimic peptide MLFSKRHWV (peptide)
peptide: MLFSKRHWV
notes: also called M012
Average % [2]: 74.3% | Exch I (%) [2]: 74.8% | Exch II (%) [2]: 73.8%

B30: CIC_R215W15 mimic peptide MMFSKRHWI (peptide)
peptide: MMFSKRHWI
notes: also called M011
Average % [2]: 42.8% | Exch I (%) [2]: 40.4% | Exch II (%) [2]: 45.3%

B31: TP53_S127F11 mimic peptide SMTCTYFPL (peptide)
peptide: SMTCTYFPL
notes: also called M211
Average % [2]: 53.5% | Exch I (%) [2]: 56.4% | Exch II (%) [2]: 50.6%

B32: KRAS.G12A mutant peptide LVVVGAAGV (peptide)
peptide: LVVVGAAGV
notes: also called M050
average relative binding (%) [1]: < 15% | Average % [2]: 6.4% | Exch I (%) [2]: 6.6% | Exch II (%) [2]: 6.2%

B33: KRAS_G12V3 mimic peptide LMVVGAVGV (peptide)
peptide: LMVVGAVGV
notes: also called M072
Average % [2]: 36.1% | Exch I (%) [2]: 39% | Exch II (%) [2]: 33.3%

B34: KRAS_G12A3 mimic peptide LMVVGAAGV (peptide)
peptide: LMVVGAAGV
notes: also called M052
Average % [2]: 51.3% | Exch I (%) [2]: 51% | Exch II (%) [2]: 51.5%

B35: KRAS_G12C2 mimic peptide LLVVGACGV (peptide)
peptide: LLVVGACGV
notes: also called M061
Average % [2]: 34.8% | Exch I (%) [2]: 36.4% | Exch II (%) [2]: 33.1%

B36: KRAS_G12V2 mimic peptide LLVVGAVGV (peptide)
peptide: LLVVGAVGV
notes: also called M071
Average % [2]: 35.9% | Exch I (%) [2]: 31.8% | Exch II (%) [2]: 40.1%

B37: TP53_K132N6 mimic peptide AMNNMFCQV (peptide)
peptide: AMNNMFCQV
notes: also called M162
Average % [2]: 70.1% | Exch I (%) [2]: 69.4% | Exch II (%) [2]: 70.8%

B38: TP53_P152L3 mimic peptide QLWVDSTPI (peptide)
peptide: QLWVDSTPI
notes: also called M181
Average % [2]: 67.9% | Exch I (%) [2]: 62% | Exch II (%) [2]: 73.8%

B39: TP53_P152L4 mimic peptide QLWVDSTPV (peptide)
peptide: QLWVDSTPV
notes: also called M182
Average % [2]: 95.7% | Exch I (%) [2]: 95.6% | Exch II (%) [2]: 95.7%

B40: TP53.C141Y12 mimic peptide KLYPVQLWI (peptide)
peptide: KLYPVQLWI
notes: also called M134
Average % [2]: 73.9% | Exch I (%) [2]: 81.3% | Exch II (%) [2]: 66.4%

B41: TP53_C141Y3 mimic peptide KMYPVQLWV (peptide)
peptide: KMYPVQLWV
notes: also called M132
Average % [2]: 76.9% | Exch I (%) [2]: 72.7% | Exch II (%) [2]: 81%

B42: SOX17.S403I7 mimic peptide VMSDAISAL (peptide)
peptide: VMSDAISAL
notes: also called M124; SOX17.S40317
Average % [2]: 77.4% | Exch I (%) [2]: 75.3% | Exch II (%) [2]: 79.5%

B43: SOX17.S403I mutant peptide VVSDAISAV (peptide)
peptide: VVSDAISAV
notes: also called M120; SOX17.S4031
Average % [2]: 86.2% | Exch I (%) [2]: 88.5% | Exch II (%) [2]: 83.8%

B44: SOX17_S403I3 mimic peptide VMSDAISAV (peptide)
peptide: VMSDAISAV
notes: also called M122; SOX17_S40313
Average % [2]: 92.4% | Exch I (%) [2]: 96.9% | Exch II (%) [2]: 87.9%

B45: SOX17_S403I6 mimic peptide VLSDAISAL (peptide)
peptide: VLSDAISAL
notes: also called M123; SOX17_S40316
Average % [2]: 87.3% | Exch I (%) [2]: 91.9% | Exch II (%) [2]: 82.6%

B46: CTNNB1.S37F10 mimic peptide YMDSGIHFL (peptide)
peptide: YMDSGIHFL
notes: also called M035
average relative binding (%) [1]: > 100% | Average % [2]: 105% | Exch I (%) [2]: 102% | Exch II (%) [2]: 108%

B47: CTNNB1_S37F5 mimic peptide YLDSGIHFV (peptide)
peptide: YLDSGIHFV
notes: also called M032
average relative binding (%) [1]: > 100% | Average % [2]: 104% | Exch I (%) [2]: 99.3% | Exch II (%) [2]: 109%

B48: CTNNB1_S37F14 mimic peptide YMDSGIHFI (peptide)
peptide: YMDSGIHFI
notes: also called M031
average relative binding (%) [1]: > 100% | Average % [2]: 107% | Exch I (%) [2]: 97.6% | Exch II (%) [2]: 116%

B49: ERBB2_V842I5 mimic peptide RLIHRDLAV (peptide)
peptide: RLIHRDLAV
notes: also called M242
Average % [2]: 73.6% | Exch I (%) [2]: 69.9% | Exch II (%) [2]: 77.3%

B50: ERBB2_V842I10 mimic peptide RMIHRDLAL (peptide)
peptide: RMIHRDLAL
notes: also called M241; ERBB2_V842110
Average % [2]: 53.7% | Exch I (%) [2]: 51.5% | Exch II (%) [2]: 55.8%

B51: ERBB2_V842I6 mimic peptide RMIHRDLAV (peptide)
peptide: RMIHRDLAV
notes: also called M243; ERBB2_V84216
Average % [2]: 57.6% | Exch I (%) [2]: 56.7% | Exch II (%) [2]: 58.5%
